Earlier results as cited in publication PMC9214263.

Biological target: TNFα (Homo sapiens) (UniProt P01375)
Test: KinExA

Chain of TNFα (Homo sapiens) (P01375 77-233): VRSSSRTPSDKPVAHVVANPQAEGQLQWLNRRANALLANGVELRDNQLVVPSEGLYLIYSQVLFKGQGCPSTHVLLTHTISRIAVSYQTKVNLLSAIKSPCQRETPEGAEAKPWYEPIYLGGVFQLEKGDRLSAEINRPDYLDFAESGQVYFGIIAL

Kd: 4.2 pM
Substance: infliximab
